B1: WW domain-binding protein 4 (Homo sapiens), O75554 (parent)
chain: MADYWKSQPKKFCDYCKCWIADNRPSVEFHERGKNHKENVAKRISEIKQKSLDKAKEEEKASKEFAAMEAAALKAYQEDLKRLGLESEILEPSITPVTSTIPPTSTSNQQKEKKEKKKRKKDPSKGRWVEGITSEGYHYYYDLISGASQWEKPEGFQGDLKKTAVKTVWVEGLSEDGFTYYYNTETGESRWEKPDDFIPHTSDLPSSKVNENSLGTLDESKSSDSHSDSDGEQEAEEGGVSTETEKPKIKFKEKNKNSDGGSDPETQKEKSIQKQNSLGSNEEKSKTLKKSNPYGEWQEIKQEVESHEEVDLELPSTENEYVSTSEADGGGEPKVVFKEKTVTSLGVMADGVAPVFKKRRTENGKSRNLRQRGDDQ
B2: WW domain-binding protein 4 (Homo sapiens), O75554 (parent)
chain: B1 chain
partner: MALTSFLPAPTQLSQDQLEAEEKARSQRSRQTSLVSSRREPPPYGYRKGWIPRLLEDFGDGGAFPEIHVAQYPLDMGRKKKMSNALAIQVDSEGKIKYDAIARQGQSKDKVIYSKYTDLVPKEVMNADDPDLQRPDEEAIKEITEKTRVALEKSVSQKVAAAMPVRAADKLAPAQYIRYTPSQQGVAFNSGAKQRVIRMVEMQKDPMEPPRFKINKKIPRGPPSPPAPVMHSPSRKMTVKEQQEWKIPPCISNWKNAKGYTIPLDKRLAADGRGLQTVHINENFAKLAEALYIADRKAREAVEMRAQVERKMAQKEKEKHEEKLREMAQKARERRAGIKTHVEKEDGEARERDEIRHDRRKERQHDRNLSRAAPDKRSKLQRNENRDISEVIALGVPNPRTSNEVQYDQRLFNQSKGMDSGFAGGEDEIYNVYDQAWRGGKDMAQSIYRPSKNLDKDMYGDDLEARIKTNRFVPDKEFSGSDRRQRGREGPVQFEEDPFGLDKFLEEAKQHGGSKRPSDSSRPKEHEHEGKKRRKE
B3: WW domain-binding protein 4 (Homo sapiens), O75554 (parent)
chain: B1 chain
partner: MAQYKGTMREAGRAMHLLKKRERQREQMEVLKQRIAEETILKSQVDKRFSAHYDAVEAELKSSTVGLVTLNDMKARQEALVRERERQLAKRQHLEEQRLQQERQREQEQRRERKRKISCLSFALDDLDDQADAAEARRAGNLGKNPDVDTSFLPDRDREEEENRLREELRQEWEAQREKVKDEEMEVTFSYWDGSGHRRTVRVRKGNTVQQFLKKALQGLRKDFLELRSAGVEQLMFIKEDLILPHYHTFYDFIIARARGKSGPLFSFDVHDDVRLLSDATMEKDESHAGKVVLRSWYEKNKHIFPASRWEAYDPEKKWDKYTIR
B4: WW domain-binding protein 4 (Homo sapiens), O75554 (parent)
chain: B1 chain
partner: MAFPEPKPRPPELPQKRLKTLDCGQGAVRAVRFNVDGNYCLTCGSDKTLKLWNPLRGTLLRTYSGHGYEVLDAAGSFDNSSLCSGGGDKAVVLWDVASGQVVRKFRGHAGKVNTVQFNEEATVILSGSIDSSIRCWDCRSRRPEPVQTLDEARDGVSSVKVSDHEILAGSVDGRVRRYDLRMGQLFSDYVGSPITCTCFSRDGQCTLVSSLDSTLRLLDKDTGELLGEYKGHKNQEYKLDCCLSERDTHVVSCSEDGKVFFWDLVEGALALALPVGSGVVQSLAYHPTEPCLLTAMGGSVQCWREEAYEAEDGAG

Data on six variants can be found in IntAct's records for PubMed 28838205.

In one assay the parent is B1. The conditions noted are these: with u520_human SNRNP200, O75643.
Sequence of u520_human SNRNP200, O75643 (O75643 whole entry): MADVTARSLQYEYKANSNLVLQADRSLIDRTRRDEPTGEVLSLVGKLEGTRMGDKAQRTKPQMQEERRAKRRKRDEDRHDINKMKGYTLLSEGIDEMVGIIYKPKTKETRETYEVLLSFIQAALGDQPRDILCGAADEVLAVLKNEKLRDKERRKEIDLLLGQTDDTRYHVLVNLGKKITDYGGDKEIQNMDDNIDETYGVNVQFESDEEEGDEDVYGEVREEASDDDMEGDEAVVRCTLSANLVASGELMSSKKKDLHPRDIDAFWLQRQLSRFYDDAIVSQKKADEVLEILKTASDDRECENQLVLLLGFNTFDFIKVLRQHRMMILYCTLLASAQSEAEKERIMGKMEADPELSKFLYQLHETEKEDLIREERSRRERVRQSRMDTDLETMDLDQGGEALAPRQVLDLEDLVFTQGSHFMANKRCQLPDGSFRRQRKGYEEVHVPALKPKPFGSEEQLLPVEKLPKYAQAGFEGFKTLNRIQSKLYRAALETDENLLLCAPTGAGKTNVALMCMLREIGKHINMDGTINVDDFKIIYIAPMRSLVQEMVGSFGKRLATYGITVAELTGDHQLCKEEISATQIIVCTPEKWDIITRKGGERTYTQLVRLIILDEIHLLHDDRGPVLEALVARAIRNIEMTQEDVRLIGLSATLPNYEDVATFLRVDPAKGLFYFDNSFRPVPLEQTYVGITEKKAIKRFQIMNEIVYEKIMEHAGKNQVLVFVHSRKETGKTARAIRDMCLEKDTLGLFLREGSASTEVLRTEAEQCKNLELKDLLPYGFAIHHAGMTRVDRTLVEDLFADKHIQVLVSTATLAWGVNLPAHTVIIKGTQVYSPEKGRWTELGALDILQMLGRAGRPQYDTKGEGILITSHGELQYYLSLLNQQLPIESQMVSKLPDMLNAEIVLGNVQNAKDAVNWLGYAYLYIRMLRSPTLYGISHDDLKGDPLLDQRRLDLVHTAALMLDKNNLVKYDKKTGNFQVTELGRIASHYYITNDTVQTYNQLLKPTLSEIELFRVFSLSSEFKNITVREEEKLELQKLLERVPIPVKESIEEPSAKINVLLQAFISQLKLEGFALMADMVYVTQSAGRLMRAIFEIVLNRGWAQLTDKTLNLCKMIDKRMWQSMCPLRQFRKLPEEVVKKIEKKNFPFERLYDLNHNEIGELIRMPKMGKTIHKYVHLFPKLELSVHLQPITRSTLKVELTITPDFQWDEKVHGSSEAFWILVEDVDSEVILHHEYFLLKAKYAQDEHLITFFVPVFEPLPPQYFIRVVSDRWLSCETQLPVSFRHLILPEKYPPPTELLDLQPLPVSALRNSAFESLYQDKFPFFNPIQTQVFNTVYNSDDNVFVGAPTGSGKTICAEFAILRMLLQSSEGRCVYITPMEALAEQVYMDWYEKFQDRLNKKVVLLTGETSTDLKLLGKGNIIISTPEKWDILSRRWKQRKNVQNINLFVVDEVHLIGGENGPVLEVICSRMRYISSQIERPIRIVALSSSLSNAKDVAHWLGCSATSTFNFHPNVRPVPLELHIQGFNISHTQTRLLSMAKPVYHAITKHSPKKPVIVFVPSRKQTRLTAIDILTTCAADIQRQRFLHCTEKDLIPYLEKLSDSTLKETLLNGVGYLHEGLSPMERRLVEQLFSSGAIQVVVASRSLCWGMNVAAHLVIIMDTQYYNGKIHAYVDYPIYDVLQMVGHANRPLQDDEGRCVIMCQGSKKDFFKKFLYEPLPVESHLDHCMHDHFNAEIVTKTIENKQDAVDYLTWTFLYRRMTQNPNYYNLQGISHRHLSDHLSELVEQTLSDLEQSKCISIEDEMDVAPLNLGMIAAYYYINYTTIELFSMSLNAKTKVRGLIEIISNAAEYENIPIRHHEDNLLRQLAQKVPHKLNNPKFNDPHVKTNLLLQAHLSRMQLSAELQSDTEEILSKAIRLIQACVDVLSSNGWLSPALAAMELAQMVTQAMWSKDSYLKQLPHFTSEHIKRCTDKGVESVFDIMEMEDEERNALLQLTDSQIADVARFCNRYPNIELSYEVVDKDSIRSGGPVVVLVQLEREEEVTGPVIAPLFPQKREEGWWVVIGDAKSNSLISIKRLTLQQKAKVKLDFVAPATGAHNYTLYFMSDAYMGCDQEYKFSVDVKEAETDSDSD
MADYWKSQPKKFCDYCKCWIADNRPSVEFHERGKNHKENVAKRISEIKQKSLDKAKEEEKASKEFAAMEAAALKAYQEDLKRLGLESEILEPSITPVTSTIPPTSTSNQQKEKKEKKKRKKDPSKGRWVEGITSEGYHYYYDLISGASQWEKPEGFQGDLKKTAVKTVWVEGLSEDGFTYYYNTETGESRWEKPDDFIPHTSDLPSSKVNENSLGTLDESKSSDSHSDSDGEQEAEEGGVSTETEKPKIKFKEKNKNSDGGSDPETQKEKSIQKQNSLGSNEEKSKTLKKSNPYGEWQEIKQEVESHEEVDLELPSTENEYVSTSEADGGGEPKVVFKEKTVTSLGVMADGVAPVFKARATENGKSRNLRQRGDDQ [K358A;R360A]: the “effect of a mutation on the interaction” value is “decreasing interaction strength”.

Take MADYWKSQPKKFCDYCKCWIADNRPSVEFHERGKNHKENVAKRISEIKQKSLDKAKEEEKASKEFAAMEAAALKAYQEDLKRLGLESEILEPSITPVTSTIPPTSTSNQQKEKKEKKKRKKDPSKGRWVEGITSEGYHYYYDLISGASQWEKPEGFQGDLKKTAVKTVWVEGLSEDGFTYYYNTETGESRWEKPDDFIPHTSDLPSSKVNENSLGTLDESKSSDSHSDSDGEQEAEEGGVSTETEKPKIKFKEKNKNSDGGSDPETQKEKSIQKQNSLGSNEEKSKTLKKSNPYGEWQEIKQEVESHEEVDLELPSTENEYVSTSEADGGGEPKVVFKEKTVTSLGVMADGVAPVFEKERTENGKSRNLRQRGDDQ [K357E;R359E]: the “effect of a mutation on the interaction” value was “decreasing interaction strength”.

In another assay the parent is B1. Particulars: with u520_human SNRNP200, O75643. The source holds these as a separate data set.
Turning to MADYWKSQPKKFCDYCKCWIADNRPSVEFHERGKNHKENVAKRISEIKQKSLDKAKEEEKASKEFAAMEAAALKAYQEDLKRLGLESEILEPSITPVTSTIPPTSTSNQQKEKKEKKKRKKDPSKGRWVEGITSEGYHYYYDLISGASQAEKPEGFQGDLKKTAVKTVWVEGLSEDGFTYYYNTETGESRWEKPDDFIPHTSDLPSSKVNENSLGTLDESKSSDSHSDSDGEQEAEEGGVSTETEKPKIKFKEKNKNSDGGSDPETQKEKSIQKQNSLGSNEEKSKTLKKSNPYGEWQEIKQEVESHEEVDLELPSTENEYVSTSEADGGGEPKVVFKEKTVTSLGVMADGVAPVFKKRRTENGKSRNLRQRGDDQ [W150A], the “effect of a mutation on the interaction” value is recorded as “with no effect”.

The variants in a further assay derive from B1. The conditions noted are these: with ppih_human PPIH.
Turning to MADYWKSQPKKFCDYCKCWIADNRPSVEFHERGKNHKENVAKRISEIKQKSLDKAKEEEKASKEFAAMEAAALKAYQEDLKRLGLESEILEPSITPVTSTIPPTSTSNQQKEKKEKKKRKKDPSKGRWVEGITSEGYHYYYDLISGASQAEKPEGFQGDLKKTAVKTVWVEGLSEDGFTYYYNTETGESRWEKPDDFIPHTSDLPSSKVNENSLGTLDESKSSDSHSDSDGEQEAEEGGVSTETEKPKIKFKEKNKNSDGGSDPETQKEKSIQKQNSLGSNEEKSKTLKKSNPYGEWQEIKQEVESHEEVDLELPSTENEYVSTSEADGGGEPKVVFKEKTVTSLGVMADGVAPVFKKRRTENGKSRNLRQRGDDQ [W150A], the “effect of a mutation on the interaction” value is reported as “with no effect”.

The variants in the next assay derive from B1. Particulars: with sf3b2_human SF3B2, Q13435.
Sequence of sf3b2_human SF3B2, Q13435 (Q13435 whole entry): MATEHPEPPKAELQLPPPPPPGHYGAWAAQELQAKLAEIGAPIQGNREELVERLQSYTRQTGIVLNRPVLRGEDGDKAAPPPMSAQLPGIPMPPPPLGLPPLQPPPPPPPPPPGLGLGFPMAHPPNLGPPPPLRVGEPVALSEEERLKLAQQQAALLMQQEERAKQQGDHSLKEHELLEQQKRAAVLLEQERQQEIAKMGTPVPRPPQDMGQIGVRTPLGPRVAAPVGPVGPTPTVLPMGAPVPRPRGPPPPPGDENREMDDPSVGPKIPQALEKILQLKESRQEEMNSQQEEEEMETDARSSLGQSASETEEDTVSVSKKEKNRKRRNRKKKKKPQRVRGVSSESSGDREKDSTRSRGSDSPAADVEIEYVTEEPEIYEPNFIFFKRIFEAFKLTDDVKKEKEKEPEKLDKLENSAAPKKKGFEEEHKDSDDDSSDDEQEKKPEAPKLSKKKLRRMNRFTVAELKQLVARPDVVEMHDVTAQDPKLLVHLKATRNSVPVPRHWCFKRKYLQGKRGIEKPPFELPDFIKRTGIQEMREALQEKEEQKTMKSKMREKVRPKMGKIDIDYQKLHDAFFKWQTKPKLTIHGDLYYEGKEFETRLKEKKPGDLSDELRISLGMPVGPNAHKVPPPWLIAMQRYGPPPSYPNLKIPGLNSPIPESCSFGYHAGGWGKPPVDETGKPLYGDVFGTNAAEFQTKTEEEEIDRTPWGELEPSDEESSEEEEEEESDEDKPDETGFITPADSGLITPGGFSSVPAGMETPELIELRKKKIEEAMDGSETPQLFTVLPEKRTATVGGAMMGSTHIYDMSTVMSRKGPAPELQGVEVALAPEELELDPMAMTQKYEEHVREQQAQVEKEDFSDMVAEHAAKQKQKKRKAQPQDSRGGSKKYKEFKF
Turning to MADYWKSQPKKFCDYCKCWIADNRPSVEFHERGKNHKENVAKRISEIKQKSLDKAKEEEKASKEFAAMEAAALKAYQEDLKRLGLESEILEPSITPVTSTIPPTSTSNQQKEKKEKKKRKKDPSKGRWVEGITSEGYHYYYDLISGASQAEKPEGFQGDLKKTAVKTVWVEGLSEDGFTYYYNTETGESRWEKPDDFIPHTSDLPSSKVNENSLGTLDESKSSDSHSDSDGEQEAEEGGVSTETEKPKIKFKEKNKNSDGGSDPETQKEKSIQKQNSLGSNEEKSKTLKKSNPYGEWQEIKQEVESHEEVDLELPSTENEYVSTSEADGGGEPKVVFKEKTVTSLGVMADGVAPVFKKRRTENGKSRNLRQRGDDQ [W150A], the “effect of a mutation on the interaction” value is recorded as “with no effect”.

The variants in another assay derive from B1. The conditions noted are these: with zc21a_human ZC2HC1A.
Regarding MADYWKSQPKKFCDYCKCWIADNRPSVEFHERGKNHKENVAKRISEIKQKSLDKAKEEEKASKEFAAMEAAALKAYQEDLKRLGLESEILEPSITPVTSTIPPTSTSNQQKEKKEKKKRKKDPSKGRWVEGITSEGYHYYYDLISGASQAEKPEGFQGDLKKTAVKTVWVEGLSEDGFTYYYNTETGESRWEKPDDFIPHTSDLPSSKVNENSLGTLDESKSSDSHSDSDGEQEAEEGGVSTETEKPKIKFKEKNKNSDGGSDPETQKEKSIQKQNSLGSNEEKSKTLKKSNPYGEWQEIKQEVESHEEVDLELPSTENEYVSTSEADGGGEPKVVFKEKTVTSLGVMADGVAPVFKKRRTENGKSRNLRQRGDDQ [W150A], the “effect of a mutation on the interaction” value is listed as “with no effect”.

Variants of B1 are the subject of another assay. Particulars: with u520_human SNRNP200, O75643. This is another data set of the same source.
Turning to MADYWKSQPKKFCDYCKCWIADNRPSVEFHERGKNHKENVAKRISEIKQKSLDKAKEEEKASKEFAAMEAAALKAYQEDLKRLGLESEILEPSITPVTSTIPPTSTSNQQKEKKEKKKRKKDPSKGRWVEGITSEGYHYYYDLISGASQWEKPEGFQGDLKKTAVKTVWVEGLSEDGFTYYYNTETGESRWEKPDDFIPHTSDLPSSKVNENSLGTLDESKSSDSHSDSDGEQEAEEGGVSTETEKPKIKFKEKNKNSDGGSDPETQKEKSIQKQNSLGSNEEKSKTLKKSNPYGEWQEIKQEVESHEEVDLELPSTENEYVSTSEADGGGEPKVVFKEKTVTSLGVMADGVAPVFEKERTENGKSRNLRQRGDDQ [K357E;R359E], the “effect of a mutation on the interaction” value is “with no effect”.

The next assay covers variants of B2. The conditions noted are these: with snw1_human SNW1, Q13573.
With MADYWKSQPKKFCDYCKCWIADNRPSVEFHERGKNHKENVAKRISEIKQKSLDKAKEEEKASKEFAAMEAAALKAYQEDLKRLGLESEILEPSITPVTSTIPPTSTSNQQKEKKEKKKRKKDPSKGRWVEGITSEGYHYYYDLISGASQAEKPEGFQGDLKKTAVKTVWVEGLSEDGFTYYYNTETGESRWEKPDDFIPHTSDLPSSKVNENSLGTLDESKSSDSHSDSDGEQEAEEGGVSTETEKPKIKFKEKNKNSDGGSDPETQKEKSIQKQNSLGSNEEKSKTLKKSNPYGEWQEIKQEVESHEEVDLELPSTENEYVSTSEADGGGEPKVVFKEKTVTSLGVMADGVAPVFKKRRTENGKSRNLRQRGDDQ [W150A], the “effect of a mutation on the interaction” value is given as “with no effect”.

The variants in the next assay derive from B3. The conditions noted are these: with fa50b_human FAM50B.
Consider MADYWKSQPKKFCDYCKCWIADNRPSVEFHERGKNHKENVAKRISEIKQKSLDKAKEEEKASKEFAAMEAAALKAYQEDLKRLGLESEILEPSITPVTSTIPPTSTSNQQKEKKEKKKRKKDPSKGRWVEGITSEGYHYYYDLISGASQAEKPEGFQGDLKKTAVKTVWVEGLSEDGFTYYYNTETGESRWEKPDDFIPHTSDLPSSKVNENSLGTLDESKSSDSHSDSDGEQEAEEGGVSTETEKPKIKFKEKNKNSDGGSDPETQKEKSIQKQNSLGSNEEKSKTLKKSNPYGEWQEIKQEVESHEEVDLELPSTENEYVSTSEADGGGEPKVVFKEKTVTSLGVMADGVAPVFKKRRTENGKSRNLRQRGDDQ [W150A], for which the “effect of a mutation on the interaction” value is on record as “with no effect”.

In a further assay the parent is B4. The conditions noted are these: with wdr83_human WDR83, Q9BRX9.
With MADYWKSQPKKFCDYCKCWIADNRPSVEFHERGKNHKENVAKRISEIKQKSLDKAKEEEKASKEFAAMEAAALKAYQEDLKRLGLESEILEPSITPVTSTIPPTSTSNQQKEKKEKKKRKKDPSKGRWVEGITSEGYHYYYDLISGASQAEKPEGFQGDLKKTAVKTVWVEGLSEDGFTYYYNTETGESRWEKPDDFIPHTSDLPSSKVNENSLGTLDESKSSDSHSDSDGEQEAEEGGVSTETEKPKIKFKEKNKNSDGGSDPETQKEKSIQKQNSLGSNEEKSKTLKKSNPYGEWQEIKQEVESHEEVDLELPSTENEYVSTSEADGGGEPKVVFKEKTVTSLGVMADGVAPVFKKRRTENGKSRNLRQRGDDQ [W150A], the “effect of a mutation on the interaction” value is “with no effect”.
